In patent US20260234247A1 (published 2026):

What was measured:
human LILRA4 = molecular target: T1, human LILRA4 (human, UniProt P59901 24-446); test: ELISA, antibody at 200 nM, OD450; + = 2-fold over ISO
T1 construct: Bought protein; also called hLILRA4
Protocol: (§1) To further confirm binding affinity, selected clones were assayed in ELISA or FACS in a range of testing concentrations.

human LILRB5 = molecular target: T2, human LILRB5 (human, UniProt O75023 24-458); test: as above
T2 construct: Bought protein; also called hLILRB5
Protocol: as §1

[1] = molecular target: T3, human LILRA2 on CHOK1-human LILRA2 cell line (human, UniProt Q8N149 24-483); test: flow cytometry on CHOK1-human LILRA2 cell line (FIG. 2A)
T3 construct: whole, on cells
T3 sequence (Q8N149 24-483): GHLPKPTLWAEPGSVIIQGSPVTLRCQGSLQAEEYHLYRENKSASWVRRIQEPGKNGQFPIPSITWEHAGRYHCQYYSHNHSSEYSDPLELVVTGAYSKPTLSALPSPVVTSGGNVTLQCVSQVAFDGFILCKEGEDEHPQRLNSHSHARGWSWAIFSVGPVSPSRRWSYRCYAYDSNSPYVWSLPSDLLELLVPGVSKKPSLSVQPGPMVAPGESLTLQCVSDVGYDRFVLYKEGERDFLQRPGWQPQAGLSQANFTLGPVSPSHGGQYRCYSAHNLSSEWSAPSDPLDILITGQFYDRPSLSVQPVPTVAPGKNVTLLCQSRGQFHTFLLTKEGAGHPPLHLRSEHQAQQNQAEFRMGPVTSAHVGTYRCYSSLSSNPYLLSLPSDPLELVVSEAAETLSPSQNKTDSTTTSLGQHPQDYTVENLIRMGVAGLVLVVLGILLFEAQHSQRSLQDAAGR

T1 sequence (P59901 24-446 limits assumed): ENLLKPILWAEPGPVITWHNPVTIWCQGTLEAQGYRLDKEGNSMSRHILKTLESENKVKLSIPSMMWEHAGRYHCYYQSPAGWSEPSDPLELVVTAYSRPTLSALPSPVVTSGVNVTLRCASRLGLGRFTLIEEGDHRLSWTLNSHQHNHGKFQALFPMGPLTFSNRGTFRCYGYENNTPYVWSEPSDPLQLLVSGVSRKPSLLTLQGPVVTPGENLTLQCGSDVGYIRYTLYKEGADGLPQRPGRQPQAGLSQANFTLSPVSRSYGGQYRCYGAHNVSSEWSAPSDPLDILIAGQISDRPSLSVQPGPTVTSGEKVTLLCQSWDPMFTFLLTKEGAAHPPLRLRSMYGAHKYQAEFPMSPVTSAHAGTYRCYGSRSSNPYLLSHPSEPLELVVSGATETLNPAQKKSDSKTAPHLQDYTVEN
T2 sequence (O75023 24-458 limits assumed): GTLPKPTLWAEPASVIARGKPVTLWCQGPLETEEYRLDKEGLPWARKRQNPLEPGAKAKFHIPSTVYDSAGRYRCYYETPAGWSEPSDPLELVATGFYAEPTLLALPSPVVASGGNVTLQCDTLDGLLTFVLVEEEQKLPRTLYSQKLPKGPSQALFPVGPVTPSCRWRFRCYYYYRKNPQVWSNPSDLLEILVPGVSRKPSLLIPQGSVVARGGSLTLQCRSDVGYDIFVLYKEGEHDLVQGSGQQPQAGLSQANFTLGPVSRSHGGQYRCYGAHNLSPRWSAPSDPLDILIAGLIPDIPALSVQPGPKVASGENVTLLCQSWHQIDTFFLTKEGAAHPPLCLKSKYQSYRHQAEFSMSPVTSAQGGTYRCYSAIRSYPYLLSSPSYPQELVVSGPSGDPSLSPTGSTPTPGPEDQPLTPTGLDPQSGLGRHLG

Row | Binder | binding result (human LILRA4) | binding result (human LILRB5) | binding result [1]
1 | LK-RB2-16 (antibody, human IgG4 S228P, kappa, V domains shown) VH: QIQLVQSGPELKKPGETVKISCKASGYTFTTYGMGWVKQAPEKGLKWMGWINTNSGAPTYGDDFKGRFAFSLETSASTAYLQINNLKNEDTATYFCAHYGRPWFAYWGQGTLVTVSA VL: DIQMTQSPASLSASVGETVTITCRASENIYSYLAWYHQKQGESPQLLVYNAKTLAEGVPSRFSGSGSGTQFSLKINSLQPEDFGSYYCQHHYNIPLTFGAGTKLELKR | binds | binds | 
2 | hz73D1.v1 (antibody, human IgG4 S228P, kappa, V domains shown) VH: QVQLVQSGAEVKKPGASVKVSCKASGYTFTDYYINWVRQAPGQGLEWMGNVNPNDGGTTYNQKFKGRVTMTTDTSTSTAYMELRSLRSDDTAVYYCARREIYFYGTIYYYAMDYWGQGTLVTVSS VL: DIQLTQSPSFLSASVGDRVTITCRASESVDYYGNSFMYWYQQKPGKAPKLLIYFASNLESGVPSRFSGSGSGTEFTLTISSLQPEDFATYYCQQNNEDPWTFGGGTKVEIKR |  |  | no binding
